Test results published in patent publication US20240270821A1, “GIP/GLP1/GCG TRI-RECEPTOR AGONISTS AND USES THEREOF” (priority 2023, published 2024).

T1: human GIP receptor (human) (UniProt P48546)
T1 sequence (looked up): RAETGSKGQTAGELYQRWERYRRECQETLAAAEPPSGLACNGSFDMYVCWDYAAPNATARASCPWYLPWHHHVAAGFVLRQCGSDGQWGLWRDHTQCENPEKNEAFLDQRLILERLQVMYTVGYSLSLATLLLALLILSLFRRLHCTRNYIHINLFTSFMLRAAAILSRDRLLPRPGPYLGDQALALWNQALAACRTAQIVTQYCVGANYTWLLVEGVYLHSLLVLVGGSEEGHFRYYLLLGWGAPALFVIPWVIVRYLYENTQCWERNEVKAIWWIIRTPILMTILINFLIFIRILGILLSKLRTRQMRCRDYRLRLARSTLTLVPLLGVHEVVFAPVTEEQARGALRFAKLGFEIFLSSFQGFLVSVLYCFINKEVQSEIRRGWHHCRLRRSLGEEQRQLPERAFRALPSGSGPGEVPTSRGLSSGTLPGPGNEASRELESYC


Assays:
Test in all cases: cell-based or functional assay
[1] = target: T1, human GIP receptor (human)
hGLP-1R = hGLP-1R (Homo sapiens, UniProt P43220)
Chain of hGLP-1R (P43220 24-463): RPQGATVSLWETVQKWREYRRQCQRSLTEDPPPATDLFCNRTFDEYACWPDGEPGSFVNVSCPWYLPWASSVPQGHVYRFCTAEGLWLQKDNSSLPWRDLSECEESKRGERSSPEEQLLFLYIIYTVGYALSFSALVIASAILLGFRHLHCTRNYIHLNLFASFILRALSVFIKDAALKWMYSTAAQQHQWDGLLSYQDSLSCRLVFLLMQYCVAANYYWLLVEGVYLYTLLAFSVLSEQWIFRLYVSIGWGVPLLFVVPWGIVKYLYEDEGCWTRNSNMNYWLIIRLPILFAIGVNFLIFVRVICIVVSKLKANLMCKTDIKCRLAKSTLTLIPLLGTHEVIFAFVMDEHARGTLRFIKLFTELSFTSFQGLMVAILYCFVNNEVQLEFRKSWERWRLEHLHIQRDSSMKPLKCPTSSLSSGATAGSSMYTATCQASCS

[2] = target: human glucagon receptor (human) (UniProt P47871)
Chain of human glucagon receptor (human) (P47871 26-477): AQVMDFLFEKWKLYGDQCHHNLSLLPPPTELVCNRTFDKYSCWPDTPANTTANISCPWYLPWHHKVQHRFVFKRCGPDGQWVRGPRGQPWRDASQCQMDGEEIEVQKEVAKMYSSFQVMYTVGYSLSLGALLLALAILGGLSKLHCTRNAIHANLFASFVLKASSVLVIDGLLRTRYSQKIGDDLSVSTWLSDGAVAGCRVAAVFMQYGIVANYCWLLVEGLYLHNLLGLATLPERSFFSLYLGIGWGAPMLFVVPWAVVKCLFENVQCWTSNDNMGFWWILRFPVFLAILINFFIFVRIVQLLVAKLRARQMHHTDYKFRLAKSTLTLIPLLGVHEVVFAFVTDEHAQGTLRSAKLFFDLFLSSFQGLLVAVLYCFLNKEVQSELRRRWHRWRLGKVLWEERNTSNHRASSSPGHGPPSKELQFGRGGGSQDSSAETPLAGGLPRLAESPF

Binder	Relative cAMP EC50 [1] [nM]	Relative cAMP EC50 (hGLP-1R) [nM]	Relative cAMP EC50 [2] [nM]	cAMP Rel EC50, nM (1% HSA) [1] [nM]	cAMP Rel EC50, nM (1% HSA) (hGLP-1R) [nM]	cAMP Rel EC50, nM (1% HSA) [2] [nM]
YXQGTFTSDXSRXLDKKAQXAFIEYLIEXSPSSGAPPPSGS (synthetic construct; SITE 2: note = 2-Aminoisobutyric Acid; SITE 10: note = 3-(4-Pyridyl)-L-alanine; SITE 13: note = alpha-methyl-leucine; SITE 17: note = Lysine is chemically modified through conjugation of the epsilon-amino group of the Lysine side chain with (2-[2-(2-Amino-ethoxy)-ethoxy]-acetyl)) [Example 807]	0.108	1.72	12.4			
YXQGTFTSDFSXXLDKKAQXAFIEYLLEGGPSSGAPPPGGS (not fully specified; free C-terminus (not amidated); synthetic construct; SITE 2: note = 2-Aminoisobutyric Acid; SITE 12: note = L-ornithine; SITE 13: note = alpha-methyl-leucine; SITE 17: note = Lysine is chemically modified through conjugation of the epsilon-amino group of the Lysine side chain with (2-[2-(2-Amino-ethoxy)-ethoxy]-acetyl)-(gamma-Glu)) [Example 196]				51.4	458	620
YXQGTFTSDXSXXLDKKAQXAFIEXLLEGGPSSGAPPPSGS (synthetic construct; SITE 2: note = 2-Aminoisobutyric Acid; SITE 10: note = 3-(4-Pyridyl)-L-alanine; SITE 12: note = L-ornithine; SITE 13: note = alpha-methyl-leucine; SITE 17: note = Lysine is chemically modified through conjugation of the epsilon-amino group of the Lysine side chain with (gamma-Gl)) [Example 942]	0.188	3.52	6.32			
YXQGTFTSDFSQXLDKKAQXAFIEXLIEGGPSSGAPPPSGS (synthetic construct; SITE 2: note = 2-Aminoisobutyric Acid; SITE 13: note = alpha-methyl-leucine; SITE 17: note = Lysine is chemically modified through conjugation of the epsilon-amino group of the Lysine side chain with (2-[2-(2-Amino-ethoxy)-ethoxy]-acetyl)-(gamma-Glu)-CO-(CH2) 16-CO2H; SITE 20: n) [Example 841]	0.194	0.336	9.71			
YXQGTFTSDXSQXLDKKAQXAFIEWLIEGGPSSGAPPPSGS (synthetic construct; SITE 2: note = 2-Aminoisobutyric Acid; SITE 10: note = 3-(4-Pyridyl)-L-alanine; SITE 13: note = alpha-methyl-leucine; SITE 17: note = Lysine is chemically modified through conjugation of the epsilon-amino group of the Lysine side chain with (gamma-Glu)2-CO-(CH2)16-CO2H; SITE 20:) [Example 872]	0.205	1.01	4.18			
YXQGTFTSDFSQXLDKKAQXAFIEYLIAGGPSSGAPPPSGS (synthetic construct; SITE 2: note = 2-Aminoisobutyric Acid; SITE 13: note = alpha-methyl-leucine; SITE 17: note = Lysine is chemically modified through conjugation of the epsilon-amino group of the Lysine side chain with (2-[2-(2-Amino-ethoxy)-ethoxy]-acetyl)-(gamma-Glu)-CO-(CH2) 16-CO2H; SITE 20: n) [Example 875]	0.101	0.771	3.65			
YXQGTFTSDXSQXLDKKAQXAFIEXLLEGGPSSGAPPPSGS (synthetic construct; SITE 2: note = 2-Aminoisobutyric Acid; SITE 10: note = 3-(4-Pyridyl)-L-alanine; SITE 13: note = alpha-methyl-leucine; SITE 17: note = Lysine is chemically modified through conjugation of the epsilon-amino group of the Lysine side chain with (gamma-Glu)2-CO-(CH2)16-CO2H; SITE 20:) [Example 938]	0.13	1.84	13.3			
YXQGTFTSDXSXXLDKKAQXAFIEXLIEGGPSSGAPPPSGS (synthetic construct; SITE 2: note = 2-Aminoisobutyric Acid; SITE 10: note = 3-(4-Pyridyl)-L-alanine; SITE 12: note = L-ornithine; SITE 13: note = alpha-methyl-leucine; SITE 17: note = Lysine is chemically modified through conjugation of the epsilon-amino group of the Lysine side chain with (gamma-Gl)) [Example 941]	0.183	0.764	11.7			
YXQGTFTSDFSQXLDKKAQXAFIEYLIAGGPSSGAPPPSGS (not fully specified; synthetic construct; SITE 2: note = 2-Aminoisobutyric Acid; SITE 13: note = alpha-methyl-leucine; SITE 17: note = Lysine is chemically modified through conjugation of the epsilon-amino group of the Lysine side chain with (gamma-Glu)2-CO-(CH2)16-CO2H; SITE 20: note = 3-(4-Pyridyl)-L-alanine; SITE 41:) [Example 876]	0.053	0.456	3.28			
YXQGTXTSDXSILLDKKAQXAFIEYLEEGGPSSGAPPPEGTGE (synthetic construct; SITE 2: note = 2-Aminoisobutyric Acid; SITE 6: note = alpha-methyl-2-fluoro-L-phenylalanine; SITE 10: note = 3-(4-Pyridyl)-L-alanine; SITE 17: note = Lysine is chemically modified through conjugation of the epsilon-amino group of the Lysine side chain with (gamma-Glu)2-CO-(CH2)1) [Example 660 (SEQ ID NO: 666)]	0.0646	1.27	7.38			
YXQGTXTSDXSILLDKKAQXAFIEXLEEGGPSSGAPPPSGTGE (synthetic construct; SITE 2: note = 2-Aminoisobutyric Acid; SITE 6: note = alpha-methyl-2-fluoro-L-phenylalanine; SITE 10: note = 3-(4-Pyridyl)-L-alanine; SITE 17: note = Lysine is chemically modified through conjugation of the epsilon-amino group of the Lysine side chain with (2-[2-(2-Amino-ethoxy))) [Example 669 (SEQ ID NO: 675)]	0.0145	0.27	1.76			
YXQGTXTSDXSILLDXKAQXAFIEXLEEGGPSSGAPPPSGTGE (synthetic construct; SITE 2: note = 2-Aminoisobutyric Acid; SITE 6: note = alpha-methyl-2-fluoro-L-phenylalanine; SITE 10: note = 3-(4-Pyridyl)-L-alanine; SITE 16: note = L-ornithine; SITE 17: note = Lysine is chemically modified through conjugation of the epsilon-amino group of the Lysine side chai) [Example 665 (SEQ ID NO: 671)]	0.0223	0.284	2.94			
YXQGTXTSDXSILLDKKAQXAFIEXLEEGGPSSGAPPPSGGGE (synthetic construct; SITE 2: note = 2-Aminoisobutyric Acid; SITE 6: note = alpha-methyl-2-fluoro-L-phenylalanine; SITE 10: note = 3-(4-Pyridyl)-L-alanine; SITE 17: note = Lysine is chemically modified through conjugation of the epsilon-amino group of the Lysine side chain with (gamma-Glu)2-CO-(CH2)1) [Example 668 (SEQ ID NO: 674)]	0.0198	0.325	2.03			
YXQGTXTSDXSILLDKKAQXAFIEXLEEGGPSSGAPPPSGTGE (synthetic construct; SITE 2: note = 2-Aminoisobutyric Acid; SITE 6: note = alpha-methyl-2-fluoro-L-phenylalanine; SITE 10: note = 3-(4-Pyridyl)-L-alanine; SITE 17: note = Lysine is chemically modified through conjugation of the epsilon-amino group of the Lysine side chain with (gamma-Glu)2-CO-(CH2)1) [Example 664 (SEQ ID NO: 670)]	0.0159	0.356	2.12			
YXQGTXTSDXSILLDKKAQXAFIEYLXEGGPSSGAPPPSGTGE (synthetic construct; SITE 2: note = 2-Aminoisobutyric Acid; SITE 6: note = alpha-methyl-2-fluoro-L-phenylalanine; SITE 10: note = 3-(4-Pyridyl)-L-alanine; SITE 17: note = Lysine is chemically modified through conjugation of the epsilon-amino group of the Lysine side chain with (2-[2-(2-Amino-ethoxy))) [Example 663 (SEQ ID NO: 669)]	0.0893	1.29	1.95			
YXQGTXTSDXSILLDKKAQXAFIEXLEEGGPSSGAPPPSGEGE (synthetic construct; SITE 2: note = 2-Aminoisobutyric Acid; SITE 6: note = alpha-methyl-2-fluoro-L-phenylalanine; SITE 10: note = 3-(4-Pyridyl)-L-alanine; SITE 17: note = Lysine is chemically modified through conjugation of the epsilon-amino group of the Lysine side chain with (gamma-Glu)2-CO-(CH2)1) [Example 667 (SEQ ID NO: 673)]	0.0217	0.42	2.34			
YXQGTXTSDXSILLDKKAQXAFIEYLXEGGPSSGAPPPSGTGE (synthetic construct; SITE 2: note = 2-Aminoisobutyric Acid; SITE 6: note = alpha-methyl-2-fluoro-L-phenylalanine; SITE 10: note = 3-(4-Pyridyl)-L-alanine; SITE 17: note = Lysine is chemically modified through conjugation of the epsilon-amino group of the Lysine side chain with (gamma-Glu)2-CO-(CH2)1) [Example 661 (SEQ ID NO: 667)]	0.0665	1.13	1.78			
YXQGTXTSDXSILLDKKAQXAFIEYLEEGGPSSGAPPPSGTGE (synthetic construct; SITE 2: note = 2-Aminoisobutyric Acid; SITE 6: note = alpha-methyl-2-fluoro-L-phenylalanine; SITE 10: note = 3-(4-Pyridyl)-L-alanine; SITE 17: note = Lysine is chemically modified through conjugation of the epsilon-amino group of the Lysine side chain with (2-[2-(2-Amino-ethoxy))) [Example 662 (SEQ ID NO: 668)]	0.0704	0.946	4.81			
YXQGTXTSDXSILLDXKAQXXFIEXLEEGGPSSGAPPPSGTGE (synthetic construct; SITE 2: note = 2-Aminoisobutyric Acid; SITE 6: note = alpha-methyl-2-fluoro-L-phenylalanine; SITE 10: note = 3-(4-Pyridyl)-L-alanine; SITE 16: note = L-ornithine; SITE 17: note = Lysine is chemically modified through conjugation of the epsilon-amino group of the Lysine side chai) [Example 674 (SEQ ID NO: 680)]	0.0264	0.21	2.09			
